Data on 1 substance can be found in PMC2800235.

The target of the assay is MBP-transposase fusion protein (reconstituted ancestral Hsmar1 transposase) (human (reconstructed ancestral sequence of the human Hsmar1 transposon)). In words: SEC. In general terms: In gel filtration, larger molecules generally elute earlier.

What is called stoichiometry N is a count of units in the complex or per binding partner. In turn, “MBP-transposase fusion protein (reconstituted ancestral Hsmar1 transposase) (enzyme)” came in with a stoichiometry N of 2.
